Data taken from US20070248607A1, “NEGATIVE IMMUNOMODULATION OF IMMUNE RESPONSES BY NKG2D-POSITIVE CD4+ CELLS” (priority 2005, published 2007).
Entries after “also recorded” stand apart in the source; their conditions may differ.

Key:
MICA [1] = biological target: T1, MICA (Homo sapiens, UniProt Q29983); experiment: ERP5 activity assay, disulfide reduction (non-reducing SDS-PAGE); assay type: biochemical; details: isolated α1α2 domain (residues 1-180)
T1 sequence (Q29983 24-203): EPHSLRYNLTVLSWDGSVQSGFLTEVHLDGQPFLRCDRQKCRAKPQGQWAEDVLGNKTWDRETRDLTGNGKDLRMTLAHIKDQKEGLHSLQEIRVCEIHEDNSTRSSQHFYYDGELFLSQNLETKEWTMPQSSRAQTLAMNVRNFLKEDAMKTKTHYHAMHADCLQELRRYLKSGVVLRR

MICA [2] = biological target: T2, MICA (Homo sapiens, UniProt Q29983); experiment: as above; assay type: biochemical; details: ectodomain MICA substrate; room temperature, 1 h or 3 h, no reducing agent
T2 sequence (Q29983 24-299): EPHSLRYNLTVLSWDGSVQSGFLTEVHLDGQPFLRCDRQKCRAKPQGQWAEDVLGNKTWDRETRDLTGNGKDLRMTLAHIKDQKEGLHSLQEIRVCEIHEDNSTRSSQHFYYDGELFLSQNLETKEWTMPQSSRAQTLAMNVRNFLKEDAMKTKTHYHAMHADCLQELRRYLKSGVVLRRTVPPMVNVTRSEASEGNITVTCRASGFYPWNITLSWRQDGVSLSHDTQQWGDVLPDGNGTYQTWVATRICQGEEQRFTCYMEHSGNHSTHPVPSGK

Siderocalin = biological target: T3, Siderocalin (Homo sapiens, UniProt P80188); experiment: as above; assay type: biochemical; details: control protein
T3 construct: made in house; host or cells: bacteria

CD94-NKG2A = CD94-NKG2A (Homo sapiens, UniProt P26715+Q13241); experiment: as above; assay type: biochemical; details: control protein
MICB = biological target: T4, MICB (Homo sapiens, UniProt Q29980, D136N/K80E/N75D); experiment: as above; assay type: biochemical; details: data not shown
T4 sequence (Q29980 23-309 N75D/K80E/D136N limits assumed): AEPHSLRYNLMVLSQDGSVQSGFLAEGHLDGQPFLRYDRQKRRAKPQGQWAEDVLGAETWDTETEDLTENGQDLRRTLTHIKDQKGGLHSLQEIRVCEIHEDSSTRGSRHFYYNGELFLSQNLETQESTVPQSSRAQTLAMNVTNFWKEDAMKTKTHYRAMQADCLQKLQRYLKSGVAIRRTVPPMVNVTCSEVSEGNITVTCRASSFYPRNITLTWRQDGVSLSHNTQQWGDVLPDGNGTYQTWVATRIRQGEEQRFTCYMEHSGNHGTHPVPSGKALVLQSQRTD

NKG2D- CD4+ T cells = experiment: CD4 T cell proliferation (CFSE dilution, [3H]thymidine incorporation); assay type: cell-based; details: anti-CD3 activated CD4 T cell cultures
Protocol: (§1) For analysis of CD4^+ T cell proliferation in conjunction with NKG2D expression, 1×10^7 freshly isolated pure CD4^+ T cells/ml PBS were labeled with an equal volume of 2 μM CFSE (Molecular Probes) for 8 min at room temperature. CFSE was quenched with an equal volume of fetal calf serum for one min followed by three washes with AIM-V medium. CFSE labeled cells were then plated, stimulated and phenotypically analysed as described above. Additional ligands tested in this experimental setting included any of either C1R-MICB, ULBP-1, -2, -3, 4, or -5 transfectants, recombinant soluble MICB, or 5% soluble MIC containing serum from a MIC+ tumor patient and MIC− control serum. To test ligand specificity, ligand containing cultures were treated with either 10 μg/ml 6D4 (anti-MICA/B), 10 μg/ml 3F1 (anti-ULBP-1), or appropriately diluted isotype control immunoglobulins. In some experiments, ligand was replaced by solid-phase anti-NKG2D (1D11) at the concentrations ranging from 5-50 ng/ml. In some experiments, ligand/solid-phase mAb were added on day 1, 2 or 3 after the initiation of culture.
To assess inhibition of CD4^+ T cell proliferation by standard [^3H]thymidine incorporation experiments, freshly isolated pure CD4^+ T cells were plated at 1×10^5 cells/well in a 96 well flat bottom plate containing titrated cross-linked anti-CD3 (see above) or isotype control Ig with or without titrated recombinant soluble MIC. After 72 hrs at 37° C., plates were pulsed with 3 μCi of [^3H]thymidine (Perkin Elmer) for 12 hrs. Plates were harvested and samples analysed by liquid scintillation using Uni-Filter GF/C plates and a TopCount Counter (both from Packard). Counts from triplicates were averaged.

CD4 T cells = experiment: Cell cycle analysis by propidium iodide staining; assay type: cell-based; details: anti-CD3 activated CD4 T cell cultures
NKG2D+ CD4+ T cells = experiment: NKG2D expression and expansion of activated CD4 T cells; assay type: cell-based; details: for expansion / proliferation of NKG2D+ CD4+ T cells: anti-CD3 activated CD4 T cell cultures
Protocol: For the analysis of NKG2D expression in activated CD4 T cells, freshly isolated pure CD4^+ T cells were plated at 0.3×10^6/2 ml AIM-V medium (Gibco)/well in 24 well plates for various periods of time with or without the presence of mitogenic stimuli and/or the presence of NKG2D ligands. Mitogenic stimuli included either cross-linked anti-CD3 (plates were first coated with AffiniPure F(ab′)2 fragment goat anti-mouse IgG1, Fcγ fragment specific (Jackson ImmunoResearch Laboratories, Inc.) at 10 μg/ml in PBS over night at 4° C. followed by a 4 hr room temperature incubation with anti-CD3 (OKT3, Orthoclone, Ortho Biotech Products, L.P.) at 50 ng/ml (if not indicated otherwise), PHA (5 μg/ml), or PMA/Ionomycin. Ligand additions consisted of either irradiated CLR-MICA and control transfectants at a T cell:transfectant ratio of 5:1, or recombinant soluble MICA at 25 ng/ml if not indicated otherwise. Cells were harvested at various time points after the initiation of culture and tested for NKG2D, CD4 and CD3 coexpression using directly conjugated mAbs for standard three color flow cytometry.
as §1

[3] = test system: sMICA shedding by Hela and A375 cells; experiment: Shedding of sMICA by tumor cell lines, ELISA for sMICA; assay type: cell-based; details: A375 and Hela cells cultured with increasing concentrations of sRNase
ERP5-MICA complexes = experiment: Capturing of ERP5-MICA complexes by co-immunoprecipitation; assay type: cell-based; details: Hela cells, increasing concentrations of sRNase, TCA treatment
Protocol: Preparation of sRNase and capturing of ERP5-MICA complexes. RNase A was denatured and reduced in 0.1M Tris-OH (pH 8.6), 6 M guanidine hydrochloride, and 0.15M dithiothreitol for 24 h at room temperature (RT), and desalted using D-Salt Dextran columns (Pierce) equilibrated with phosphate-buffered saline (PBS). 2×10^6 semi-confluent Hela cells were exposed to various concentrations of sRNase for 16 h, washed, and surface biotinylated with EZ-Link Sulfo-NHS-LC Biotin. Labeled cells were incubated in 0.5 ml 10% (w/v) TCA in PBS for 30 min on ice, washed sequentially in 10% and 5% TCA in PBS, and lysed in 50 mM Tris (pH 7.4), 1% Surfact-Amps NP-40 (Pierce), 150 mM NaCl, 5 mM EDTA, 40 mM N-ethylmaleimide (Sigma), 1 mM PMSF, leupeptin (1 μg/ml), and pepstatin (1 μg/ml). Lysate pH was adjusted to 7.0 with 1M Tris-OH (pH 9.5). Protein complexes were precipitated with mAb 2C10 (anti-MICA) or ERP5 polyclonal antibody, treated with N-glycanase, and processed for SDS-PAGE. For sequential precipitation, mAb 2C10 immunocomplexes were dissociated with 150 mM Tris (pH 7.4), 0.5% SDS, and 10 mM DTT, diluted 10-fold with lysis buffer containing 25 mM iodoacetamide, incubated for 1 h at RT for DTT neutralization and sulfhydryl alkylation, and reprecipitated with anti-MICA mAb BAMO-1 (Axxora) or anti-ERP5. […]

T3 sequence (P80188 21-198, species assumed): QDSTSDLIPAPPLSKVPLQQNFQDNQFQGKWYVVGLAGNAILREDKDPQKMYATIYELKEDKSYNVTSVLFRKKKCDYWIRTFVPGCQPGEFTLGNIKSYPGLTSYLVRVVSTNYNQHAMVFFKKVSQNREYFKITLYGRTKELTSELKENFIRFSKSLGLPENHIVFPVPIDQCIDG
Chain of CD94-NKG2A (Q13241 32-179 limits assumed): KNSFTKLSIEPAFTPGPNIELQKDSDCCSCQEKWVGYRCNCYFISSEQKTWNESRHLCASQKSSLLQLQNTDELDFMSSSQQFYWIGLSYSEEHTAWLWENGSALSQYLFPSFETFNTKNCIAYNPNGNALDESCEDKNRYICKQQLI
Chain of CD94-NKG2A (P26715 94-233 limits assumed): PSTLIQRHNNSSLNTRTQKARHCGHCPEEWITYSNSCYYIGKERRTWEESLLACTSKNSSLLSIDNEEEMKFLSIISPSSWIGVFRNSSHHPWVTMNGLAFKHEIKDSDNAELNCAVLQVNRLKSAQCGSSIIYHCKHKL

ERP5: recombinant ERP5 (residues 1-421 of the mature protein), protein disulfide isomerase family, produced in bacteria
catalytic activity on the MICA α1α2 platform domain (MICA [1]): no catalytic activity; also recorded: no effect
reduction of MICA disulfide bonds (MICA [2]): gradual reduction of MICA; also recorded: progressive MICA reduction
reduction of Siderocalin (Siderocalin): did not affect; also recorded: No reduction
reduction of CD94-NKG2A (CD94-NKG2A): did not affect; also recorded: No reduction
reduction of MICB (MICB): A similar result

B1: sMICA: soluble MICA, NKG2D ligand added to CD4 T cell cultures (protein)
chain: T2 sequence (Q29983 24-299)
proliferation of NKG2D- CD4+ T cells (NKG2D- CD4+ T cells): inhibition of NKG2D^− CD4^+ T cell proliferation
cell cycle distribution (CD4 T cells): partial cell cycle arrests in G0/G1
expansion / proliferation of NKG2D+ CD4+ T cells (NKG2D+ CD4+ T cells): expansion of NKG2D^+ CD4^+ T cells
expansion / proliferation of NKG2D+ CD4+ T cells (NKG2D+ CD4+ T cells; listed as soluble MICA): proliferate
NKG2D induction on normal CD4+ T cells (NKG2D+ CD4+ T cells; upon anti-CD3 activation): enhanced

B2: sRNase: 'scrambled' (denatured and reduced) RNase A, excess substrate shifting ERP5 towards the reduced state (protein, UniProt P61823 27-150, looked up)
Ribonuclease pancreatic: KETAAAKFERQHMDSSTSAASSSNYCNQMMKSRNLTKDRCKPVNTFVHESLADVQAVCSQKNVACKNGQTNCYQSYSTMSITDCRETGSSKYPNCAYKTTQANKHIIVACEGNPYVPVHFDASV
modifications: scrambled denatured reduced
notes: 'scrambled' (denatured and reduced) RNase A, excess substrate shifting ERP5 towards the reduced state
sMICA shedding [3]: large increases of sMICA; also recorded: promote sMICA shedding
amounts of ERP5 co-immunoprecipitating with MICA (ERP5-MICA complexes): larger amounts of ERP5 co-immunoprecipitating with MICA; also recorded: increase
